B1: THAP1; numbered along this chain (parent)
chain: MVQSCSAYGCKNRYDKDKPVSFHKFPLTRPSLCKEWEAAVRRKNFKPTKYSSICSEHFTPDCFKRECNNKLLKENAVPTIFLCTEPHDKKEDLLEPQEQLPPPPLPPPVSQVDAAIGLLMPPLQTPVNLSVFCDHNYTVEDTMHQRKRIHQLEQQVEKLRKKLKTAQQRCRRQERQLEKLKEVVHFQKEKDDVSERGYVILPNDYFEIVEVPA

Variants of B1 are the subject of the data set. Put plainly: THAP1 transcriptional activity (GFP+/GFP- enrichment relative to wild-type constructs) (ratio to WT); higher = more THAP1 activity (PSMB5 reporter activation). To be noted: with PSMB5 promoter-GFP reporter. An outline of the steps:
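In duplicate, a lentivirus-delivered library with every residue from 2–213 of human THAP1 changed to all 20 amino acids was introduced at MOI ~0.3 into THAP1-knockout HEK-293T cells carrying endogenous PSMB5 tagged by mClover3 knock-in. Five days on, BFP+ cells were binned as GFP-dim or GFP-bright, and Illumina sequencing of genomic DNA amplicons counted each variant. Activity is the bright/dim read fold change, averaged over replicates and scaled to the mean of wild-type synonymous constructs.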
In the case of MVQSCSAYGCKNRYDKDKPVSFHKFPLTRPSLCKEWEAAVRRKNFKPTKYSSICSEHSTPDCFKRECNNKLLKENAVPTIFLCTEPHDKKEDLLEPQEQLPPPPLPPPVSQVDAAIGLLMPPLQTPVNLSVFCDHNYTVEDTMHQRKRIHQLEQQVEKLRKKLKTAQQRCRRQERQLEKLKEVVHFQKEKDDVSERGYVILPNDYFEIVEVPA [F58S], the THAP1 transcriptional activity was 0.0937.
The result for MVQSCSAYGCKNRYDKDKPVSFHKFPLTRPSLCKEWEAAVRRKNFKPTPYSSICSEHFTPDCFKRECNNKLLKENAVPTIFLCTEPHDKKEDLLEPQEQLPPPPLPPPVSQVDAAIGLLMPPLQTPVNLSVFCDHNYTVEDTMHQRKRIHQLEQQVEKLRKKLKTAQQRCRRQERQLEKLKEVVHFQKEKDDVSERGYVILPNDYFEIVEVPA [K49P] reads 0.264; that for MVQSCSAYGCKNRYDKDKPVSFHKFPLTRPSLCKEWEAAVRRKNFKPTKYSSICSEHFTPDCFKRECNNKLLKENAVPTIFLCTEPHDKKEDLLEPQEQLPPPPLPPPVSQTDAAIGLLMPPLQTPVNLSVFCDHNYTVEDTMHQRKRIHQLEQQVEKLRKKLKTAQQRCRRQERQLEKLKEVVHFQKEKDDVSERGYVILPNDYFEIVEVPA [V112T], 1.06; that for MVQSCSAYGCKNRYDKDKPVSFHKFPLTRPSLCKEWEAAVRRKNFKPTKYSSICSEHFTPDCFKRECNNKLLKENAVPTIFLCTEPHDKKEDLLEPQEQLPPPPLPPPVSQVDAAIGLLMPPLQTPVNLSVFCDHNYTVADTMHQRKRIHQLEQQVEKLRKKLKTAQQRCRRQERQLEKLKEVVHFQKEKDDVSERGYVILPNDYFEIVEVPA [E140A], 1.46.
Then MVQSCSAYGCKNRYDKDKPVSFHKFPLTRPSLCKEWEAAVRRKNFKPTKYSSICSEHFTPDCFKRECNNKLLKENAVPTIFLCTEPHDKKEDLLEPQEQLPPPPLPPPVSQVDAAIGLLMPPLQTPVTLSVFCDHNYTVEDTMHQRKRIHQLEQQVEKLRKKLKTAQQRCRRQERQLEKLKEVVHFQKEKDDVSERGYVILPNDYFEIVEVPA [N128T], with 0.494; and MVQSWSAYGCKNRYDKDKPVSFHKFPLTRPSLCKEWEAAVRRKNFKPTKYSSICSEHFTPDCFKRECNNKLLKENAVPTIFLCTEPHDKKEDLLEPQEQLPPPPLPPPVSQVDAAIGLLMPPLQTPVNLSVFCDHNYTVEDTMHQRKRIHQLEQQVEKLRKKLKTAQQRCRRQERQLEKLKEVVHFQKEKDDVSERGYVILPNDYFEIVEVPA [C5W], with 0.202; and MVQSCSAYGCKNRYDKDKPVSFHKFPLTRPSLCKEWEAAVRRKNFKPTKYSSICSEHFTPDCFKRECNNKLLKENAVPTIFLCTEPHDKKEDLLEPQEQLPPPPLPPPVSQVDAAIGLLMPPLQTPVNLSVFVDHNYTVEDTMHQRKRIHQLEQQVEKLRKKLKTAQQRCRRQERQLEKLKEVVHFQKEKDDVSERGYVILPNDYFEIVEVPA [C133V], with 2.05.
For the variant MVQSCSKYGCKNRYDKDKPVSFHKFPLTRPSLCKEWEAAVRRKNFKPTKYSSICSEHFTPDCFKRECNNKLLKENAVPTIFLCTEPHDKKEDLLEPQEQLPPPPLPPPVSQVDAAIGLLMPPLQTPVNLSVFCDHNYTVEDTMHQRKRIHQLEQQVEKLRKKLKTAQQRCRRQERQLEKLKEVVHFQKEKDDVSERGYVILPNDYFEIVEVPA [A7K], the THAP1 transcriptional activity is 0.186.
The result for MVQSCSFYGCKNRYDKDKPVSFHKFPLTRPSLCKEWEAAVRRKNFKPTKYSSICSEHFTPDCFKRECNNKLLKENAVPTIFLCTEPHDKKEDLLEPQEQLPPPPLPPPVSQVDAAIGLLMPPLQTPVNLSVFCDHNYTVEDTMHQRKRIHQLEQQVEKLRKKLKTAQQRCRRQERQLEKLKEVVHFQKEKDDVSERGYVILPNDYFEIVEVPA [A7F] reads 0.19; that for MVQSCSAYGCKNRYDKDKPVSFHKFPLTRPSLCKEWEAAVRRKNFKPTKYSSICSEHFTPDCFKRECNNKLLKENAVPTIFLCTEPHDKKEDLLEPQEQLPPPPLPPPVSQVDAAIGLLMPPLQTRVNLSVFCDHNYTVEDTMHQRKRIHQLEQQVEKLRKKLKTAQQRCRRQERQLEKLKEVVHFQKEKDDVSERGYVILPNDYFEIVEVPA [P126R], 0.51.
The result for MVQSCSAYGCKNRYDKDKPVSFHKFPLTRPSLCKEWEAAVRRKNFKPTKYSSICSEHFTPDCFKRECNNKLLKENAVPTIFLCTEPHDKKEDLLEPQEQLPPPPLPPPVSQVDAAIGLLMPPLQTPVNLSVFCDHNYTVEDTMHQRKRIHQLEQQVEKLRKKLKCAQQRCRRQERQLEKLKEVVHFQKEKDDVSERGYVILPNDYFEIVEVPA [T165C] reads 1.22; that for MVQSCSAYGCKNRYDKDKPVSFHKFPLTRPSLCKEWEAAVRRKNFKPTKYSSICSEHFTPDCFKRECNNKLLKENAVPTIFLCTEPHDKKEDLLEPQEQLPPPPLPPPVSQVDAAIGLLMPPLQTPVNLSVFCDHNYTVEDTMHQRKRIHQLEQQVEKLRKKLKTAQQRCRRQERQLEKLKEVVHFQKEKDDVSERGYVILPNDYFESVEVPA [I208S], 1.17; that for MVQSCSAYGCKNRYDKDKPVSFHKFPLTRPSLCKEWEAAVRRKNFKPTKYSSICSEHFTPDCFKRECNNKLLKENAVPTIFLCTEPHDKKEDLLEPQEQLPPPPLPPPVSQVDAAIGLLMPPLQTPVNLSVFCDHNYTVEDTMHQRKRIHQLEQQVEKLRKKLKTAQQRCRRQERQLEKLKEVVHFQKEKDDVSERGYVILPNDYFEDVEVPA [I208D], 0.924.
The result for MVQSCSAYGCKNRYDKDKPVSFHKFPLTRPSLCKEWEAAVRRKNFKPTKYSSICSEHFTPDCFKRECNNKLLKENAVPNIFLCTEPHDKKEDLLEPQEQLPPPPLPPPVSQVDAAIGLLMPPLQTPVNLSVFCDHNYTVEDTMHQRKRIHQLEQQVEKLRKKLKTAQQRCRRQERQLEKLKEVVHFQKEKDDVSERGYVILPNDYFEIVEVPA [T79N] reads 0.622.
